The record followed here is patent EP4667483A1 (JCR Pharmaceuticals Co., Ltd., dated 2024).

B1: 894_0636 (peptide)
peptide: AVXVXNYXIIKRFXC
modifications: as printed: A-V-MeF3C-V-MeW-N-Y-F4OMe-I-I-K-R-F-MeY-C; linker PEG4c-NH2; cyclic (ClAc-Ala1 thioether to Cys15)
B2: 894_0637 (peptide)
peptide: AVXVXNYXIIQRFXC
modifications: as printed: A-V-MeF3C-V-MeW-N-Y-F4OMe-I-I-Q-R-F-MeY-C; linker PEG4c-NH2; cyclic (ClAc-Ala1 thioether to Cys15)
B3: 894_0616 (peptide)
peptide: AVXVXNYYXIKRYXC
modifications: as printed: A-V-Me3Py-V-MeW-N-Y-Y-Eva-I-K-R-Y-MeY-C; linker PEG4c; cyclic (ClAc-Ala1 thioether to Cys15)
B4: 894_3435 (peptide)
peptide: AVXVWNYYIIXRYXC
modifications: as printed: A-V-MeF-V-W-N-Y-Y-I-I-E(PEG8Me)-R-Y-MeY-C; linker G-KN3; cyclic (ClAc-Ala1 thioether to Cys15)
B5: 894_3436 (peptide)
peptide: AVXVWNYYIIRRXXC
modifications: as printed: A-V-MeF-V-W-N-Y-Y-I-I-R-R-F3COO(PEG8Me)-MeY-C; linker G-KN3; cyclic (ClAc-Ala1 thioether to Cys15)

Numbered stars: 1 amine (or outer) side, 2 acyl side, 3 side chain; on linkers, the order of the positions; unused ones are H or OH. Bridge positions count the residues as written; N and C are the ends. Square brackets hold non-standard residues; d marks the D form. Primed or numbered codes have the meaning given here. * marks the point of attachment. F4aao = 4-(carboxymethoxy)-L-phenylalanine, O=C([C@H](Cc1ccc(OCC(=O)[*:3])cc1)N[*:1])[*:2]; NH(1-deoxy-D-glucityl) = OC[C@@H](O)[C@@H](O)[C@H](O)[C@@H](O)CN*; PEG4c = amino-tetraoxa (PEG4) carboxylic acid spacer; NMePhe(4-COOH) = CN[C@@H](Cc1ccc(C(=O)O)cc1)C(=O)O; Tyr(Me) = COc1ccc(C[C@H](N[*:1])C(=O)[*:2])cc1; NMePhe(3-Cl) = CN[C@@H](Cc1cccc(Cl)c1)C(=O)O; Piperazinyl(4-CH2COOH) = O=C(O)CN1CCN(*)CC1; NMeW = CN[C@@H](Cc1c[nH]c2ccccc12)C(=O)O; NMeY = CN[C@@H](Cc1ccc(O)cc1)C(=O)O; PEG4c(3) = PEG4 linker acid; PEG4c″ = not defined here

One may read the Kd as the constant that tells how readily two partners part at equilibrium. A high value points to lower affinity.

The first experiment addresses T1, human transferrin receptor (hTfR) (human, UniProt P02786 89-760).
T1 construct: a His tag is implied by the NTA chip and the anti-His capture; also called human TfR; TfR1
Nature of the experiment: SPR, KD pH 6.0 / KD pH 7.4. In general terms: SPR reads the build-up and loss of mass on a sensor chip optically.
T1 sequence (P02786 89-760 limits assumed): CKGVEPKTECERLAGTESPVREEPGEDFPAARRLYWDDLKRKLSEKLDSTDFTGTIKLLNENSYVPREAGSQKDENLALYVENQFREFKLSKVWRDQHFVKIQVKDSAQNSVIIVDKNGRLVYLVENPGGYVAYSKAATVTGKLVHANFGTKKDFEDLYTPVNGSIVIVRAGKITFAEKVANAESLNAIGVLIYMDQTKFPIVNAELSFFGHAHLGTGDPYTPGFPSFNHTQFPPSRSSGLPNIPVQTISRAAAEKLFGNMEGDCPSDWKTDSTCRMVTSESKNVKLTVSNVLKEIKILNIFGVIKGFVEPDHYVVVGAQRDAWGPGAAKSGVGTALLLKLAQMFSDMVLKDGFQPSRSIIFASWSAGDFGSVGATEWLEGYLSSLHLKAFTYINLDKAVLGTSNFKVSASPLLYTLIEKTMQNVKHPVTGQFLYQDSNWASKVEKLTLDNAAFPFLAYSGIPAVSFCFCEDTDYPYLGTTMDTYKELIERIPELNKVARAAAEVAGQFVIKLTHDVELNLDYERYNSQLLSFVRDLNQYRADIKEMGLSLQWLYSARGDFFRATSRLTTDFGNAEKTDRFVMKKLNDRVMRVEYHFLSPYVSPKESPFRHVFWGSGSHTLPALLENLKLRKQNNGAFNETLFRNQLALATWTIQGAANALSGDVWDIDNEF
Take {CH2CO}-AV[NMePhe(3-Cl)]VWNY[F4aao](Piperazinyl(4-CH2COOH))IIE(NH(1-deoxy-D-glucityl))QF[NMeY]C-{PEG4c-NH2} (thioether N-15) [894_0510 (SEQ ID NO: 37)]: the “dependency KD pH6.0/7.4” value amounted to 18.1.

The next experiment addresses T2, human transferrin receptor (hTfR) (human, UniProt P02786 89-760).
T2 construct: Recombinant hTfR; at pH 7.4 captured on the chip by an anti-His tag antibody, at pH 6.0 immobilized on an NTA chip, so it carries a His tag; also called human TfR; TfR1
The experiment in a line: SPR (Biacore T200), pH 7.4, hTfR on chip.
T2 sequence (P02786 89-760 limits assumed): as above
In the case of {CH2CO}-AV[NMePhe(3-Cl)]V[NMeW]NY[F4aao]IIKRF[NMePhe(4-COOH)](PEG4c(3))C-{PEG4c(3)-NH2} (thioether N-15) [894_0647], the Kd stood at 0.142 nM.

In turn, {CH2CO}-AV[NMePhe(3-Cl)]V[NMeW]NY[F4aao]IIKRF[NMeY]C-{PEG4c(3)-NH2} (thioether N-15) [894_0644] displayed a Kd of 0.322 nM.

B1: the Kd is 0.226 nM.

As to {CH2CO}-AV[NMePhe(3-Cl)]V[NMeW]NR[Tyr(Me)]IIQRF[NMeY]C-{PEG4c(3)-NH2} (thioether N-15) [894_0642], the affinity, expressed as Kd, was 20.6 nM. Compared with the last molecule, the Kd is about 91-fold higher.

In the case of B2, the affinity, expressed as Kd, was 0.859 nM.

Take {CH2CO}-AV[NMePhe(3-Cl)]V[NMeW]NR[Tyr(Me)]IIKRF[NMeY]C-{PEG4c″-NH2} (thioether N-15; reading uncertain) [894_0641]: the Kd is 3.81 nM.

A further experiment has as its target T2, human transferrin receptor (hTfR). The experiment in a line: SPR, KD at pH 6.0 over KD at pH 7.4.
On to {CH2CO}-AV[NMePhe(3-Cl)]V[NMeW]NY[F4aao]IIKRF[NMePhe(4-COOH)](PEG4c(3))C-{PEG4c(3)-NH2} (thioether N-15) [894_0647], for which the “dependency KD pH6.0/7.4” value amounted to 5.35.

Consider {CH2CO}-AV[NMePhe(3-Cl)]V[NMeW]NY[F4aao]IIKRF[NMeY]C-{PEG4c(3)-NH2} (thioether N-15) [894_0644], for which the “dependency KD pH6.0/7.4” value turned out to be 2.37.

As to B1, the “dependency KD pH6.0/7.4” value came out at 3.58.

With {CH2CO}-AV[NMePhe(3-Cl)]V[NMeW]NR[Tyr(Me)]IIQRF[NMeY]C-{PEG4c(3)-NH2} (thioether N-15) [894_0642], the “dependency KD pH6.0/7.4” value stood at 3.67.

Take B2: the “dependency KD pH6.0/7.4” value stood at 5.66.

For the molecule {CH2CO}-AV[NMePhe(3-Cl)]V[NMeW]NR[Tyr(Me)]IIKRF[NMeY]C-{PEG4c″-NH2} (thioether N-15; reading uncertain) [894_0641], the “dependency KD pH6.0/7.4” value turned out to be 3.49.

Another experiment concerns the target T1, human transferrin receptor (hTfR). The experiment in a line: SPR, pH 6.0.
{CH2CO}-AV[NMePhe(3-Cl)]VWNY[F4aao](Piperazinyl(4-CH2COOH))IIE(NH(1-deoxy-D-glucityl))QF[NMeY]C-{PEG4c-NH2} (thioether N-15) [894_0510 (SEQ ID NO: 37)] came in with a dissociation constant (Kd) of 27.9 nM.

In another experiment the target is T2, human transferrin receptor (hTfR). The experiment in a line: SPR (Biacore T200), pH 6.0, hTfR on chip.
Molecule B3 displayed an equilibrium dissociation constant (Kd) of 50.8 nM.

In turn, B4 registered a Kd of 41.2 nM.

In turn, B5 had a Kd of 6.72 nM.

The next experiment has the same target. Nature of the experiment: SPR, KD at pH 6.0 over KD at pH 7.4. This is another data set of the same source.
Target sequence in this assay (P02786 89-760 limits assumed): as above
Regarding B3, the “dependency KD pH6.0/7.4” value amounted to 1.22.

Consider B4, for which the “dependency KD pH6.0/7.4” value turned out to be 3.55.

B5: the “dependency KD pH6.0/7.4” value worked out at 3.36.

In a further experiment the target is T1, human transferrin receptor (hTfR). Nature of the experiment: SPR, pH 7.4.
In turn, {CH2CO}-AV[NMePhe(3-Cl)]VWNY[F4aao](Piperazinyl(4-CH2COOH))IIE(NH(1-deoxy-D-glucityl))QF[NMeY]C-{PEG4c-NH2} (thioether N-15) [894_0510 (SEQ ID NO: 37)] yielded a Kd of 1.54 nM.

In another experiment the target is T2, human transferrin receptor (hTfR). The experiment in a line: SPR (Biacore T200), pH 6.0, hTfR on chip. The source holds these as a separate data set.
On to {CH2CO}-AV[NMePhe(3-Cl)]V[NMeW]NY[F4aao]IIKRF[NMePhe(4-COOH)](PEG4c(3))C-{PEG4c(3)-NH2} (thioether N-15) [894_0647], for which binding was put at a Kd of 0.76 nM.

Consider {CH2CO}-AV[NMePhe(3-Cl)]V[NMeW]NY[F4aao]IIKRF[NMeY]C-{PEG4c(3)-NH2} (thioether N-15) [894_0644], for which the equilibrium dissociation constant (Kd) stood at 0.764 nM.

In turn, B1 gave a dissociation constant (Kd) of 0.81 nM.

{CH2CO}-AV[NMePhe(3-Cl)]V[NMeW]NR[Tyr(Me)]IIQRF[NMeY]C-{PEG4c(3)-NH2} (thioether N-15) [894_0642] returned a Kd of 75.5 nM.

B2: the dissociation constant (Kd) is 4.86 nM. This Kd is about 16-fold lower than that of the molecule before.

Regarding {CH2CO}-AV[NMePhe(3-Cl)]V[NMeW]NR[Tyr(Me)]IIKRF[NMeY]C-{PEG4c″-NH2} (thioether N-15; reading uncertain) [894_0641], the affinity, expressed as Kd, was 13.3 nM.

For a further experiment the target is unchanged. The experiment in a line: SPR, koff at pH 6.0 over koff at pH 7.4.
Target sequence in this assay (P02786 89-760 limits assumed): as above
Take {CH2CO}-AV[NMePhe(3-Cl)]V[NMeW]NY[F4aao]IIKRF[NMePhe(4-COOH)](PEG4c(3))C-{PEG4c(3)-NH2} (thioether N-15) [894_0647]: the “dependency koff pH6.0/7.4” value was 9.27.

Consider {CH2CO}-AV[NMePhe(3-Cl)]V[NMeW]NY[F4aao]IIKRF[NMeY]C-{PEG4c(3)-NH2} (thioether N-15) [894_0644], for which the “dependency koff pH6.0/7.4” value is 4.92.

For B1, the “dependency koff pH6.0/7.4” value came to 5.55.

Turning to {CH2CO}-AV[NMePhe(3-Cl)]V[NMeW]NR[Tyr(Me)]IIQRF[NMeY]C-{PEG4c(3)-NH2} (thioether N-15) [894_0642], the “dependency koff pH6.0/7.4” value turned out to be 4.85.

B2: the “dependency koff pH6.0/7.4” value amounted to 9.23.

Take {CH2CO}-AV[NMePhe(3-Cl)]V[NMeW]NR[Tyr(Me)]IIKRF[NMeY]C-{PEG4c″-NH2} (thioether N-15; reading uncertain) [894_0641]: the “dependency koff pH6.0/7.4” value turned out to be 3.44.

The next experiment shares this target. The experiment in a line: SPR (Biacore T200), pH 7.4, hTfR on chip. The source holds these as a separate data set.
Target sequence in this assay (P02786 89-760 limits assumed): as above
Take B3: the affinity, expressed as Kd, was 41.7 nM. This counts as double-digit nanomolar.

On to B4, for which the affinity, expressed as Kd, was 11.6 nM.

B5: binding was put at a Kd of 2 nM.

In another experiment the target is T1, human transferrin receptor (hTfR). The experiment in a line: SPR, koff pH 6.0 / koff pH 7.4.
Consider {CH2CO}-AV[NMePhe(3-Cl)]VWNY[F4aao](Piperazinyl(4-CH2COOH))IIE(NH(1-deoxy-D-glucityl))QF[NMeY]C-{PEG4c-NH2} (thioether N-15) [894_0510 (SEQ ID NO: 37)], for which the “dependency koff pH6.0/7.4” value turned out to be 33.9.

A further experiment addresses T2, human transferrin receptor (hTfR). The experiment in a line: SPR, koff at pH 6.0 over koff at pH 7.4. This is another data set of the same source.
Take B3: the “dependency koff pH6.0/7.4” value stood at 3.41.

As for B4, the “dependency koff pH6.0/7.4” value was found to be 6.89.

B5: the “dependency koff pH6.0/7.4” value was 5.75.
